In patent US20240317834A1, “COMPOSITIONS AND METHODS FOR NEUROLOGICAL DISEASES” (CODA BIOTHERAPEUTICS, INC., priority 2020, published 2024):
Substitutions are numbered along the chain they refer to. Numbers in names are those of the source.

Tested on: Lenti-X 293T cells
Assay: YFP fluorescence quenching anion reporter plate reader assay of engineered receptors stimulated with acetylcholine or a non-native ligand
Assay type: cell-based
Details: for percent quench of YFP fluorescence, 30 nM TC-6683: TC-6683 30 nM; for percent quench of YFP fluorescence, 300 nM TC-6683: TC-6683 300 nM; for percent quench of YFP fluorescence, 3 uM TC-6683: TC-6683 3 uM; for percent quench of YFP fluorescence, 30 uM TC-6683: TC-6683 30 uM; for percent quench of YFP fluorescence, 100 uM TC-6683: TC-6683 100 uM; for percent quench of YFP fluorescence, 10 uM ach: acetylcholine 10 uM; for percent quench of YFP fluorescence, 100 uM ach: acetylcholine 100 uM; for percent quench of YFP fluorescence, 1 mM ach: acetylcholine 1 mM; for percent quench of YFP fluorescence, 3 mM ach: acetylcholine 3 mM
Outline: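 Lenti-X 293T cells carrying a YFP anion reporter were transiently transfected with channel DNA and assayed the next day in HEPES-buffered ECS at pH 7.2. Ligand (acetylcholine or non-native ligand) was added in NaI-substituted ECS. Percent quench was the mean of the last 10 s relative to the 15 s pre-addition baseline.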

B1: CODA535: engineered chimeric LGIC receptor, L131T, S172D in SEQ ID NO: 33 (protein)
chain: MRCSPGGVWLALAASLLHVSLQGEFQRKLYKELVKNYNPLERPVANDSQPLTVYFSLSLLQIMDVDEKNQVLTTNIWLQMSWTDHYLQWNVSEYPGVKTVRFPDGQIWKPDILLYNSADERFDATFHTNVTVNSSGHCQYLPPGIFKSSCPMDLKNFPMDVQTCKLKFGSWDYGGWSLDLQMQEADISGYIPNGEWDLVGIPGKRSERFYECCKEPYPDVTFTVTMRRRMGYYLIQMYIPSLLIVILSWISFWINMDAAPARVGLGITTVLTMTTQSSGSRASLPKVSYVKAIDIWMAVCLLFVFSALLEYAAVNFVSRQHKELLRFRRKRRHHKSPMLNLFQEDEAGEGRFNFSAYGMGPACLQAKDGISVKGANNSNTTNPPPAPSKSPEEMRKLFIQRAKKIDKISRIGFPMAFLIFNMFYWIIYKIVRREDVHNQ
modifications: synthetic sequence of chimeric LGIC
1 nM CNL001, first column
  YFP fluorescence quenching using CNL001: 8.736%
1 nM CNL001, second column
  YFP fluorescence quenching using CNL001: 24.572%
10 nM CNL001, first column
  YFP fluorescence quenching using CNL001: 60.552%
10 nM CNL001, second column
  YFP fluorescence quenching using CNL001: 63.09%
30 nM fac
  YFP fluorescence quenching using Facinicline: −21.36
50 nM CNL001, first column
  YFP fluorescence quenching using CNL001: 73.242%
50 nM CNL001, second column
  YFP fluorescence quenching using CNL001: 73.889%
50 nM abt
  YFP fluorescence quenching using ABT-126: −11.09%
100 nM CNL001, first column
  YFP fluorescence quenching using CNL001: 76.147%
100 nM CNL001, second column
  YFP fluorescence quenching using CNL001: 76.21%
100 nM CNL002
  YFP fluorescence quenching using CNL002: 1.23%
100 nM abt
  YFP fluorescence quenching using ABT-126: −10.37%
100 nM azd0328
  YFP fluorescence quenching using AZD-0328: −7.02%
300 nM abt
  YFP fluorescence quenching using ABT-126: −4%
300 nM azd0328
  YFP fluorescence quenching using AZD-0328: −0.48%
300 nM fac
  YFP fluorescence quenching using Facinicline: 4.17
1 uM CNL001, first column
  YFP fluorescence quenching using CNL001: 78.988%
1 uM CNL001, second column
  YFP fluorescence quenching using CNL001: 78.818%
1 uM CNL002
  YFP fluorescence quenching using CNL002: 35.77%
1 uM abt
  YFP fluorescence quenching using ABT-126: 4.05%
1 uM tc6987
  YFP fluorescence quenching using TC-6987: −21.8
10 uM tc6987
  YFP fluorescence quenching using TC-6987: −27.08
30 uM CNL002
  YFP fluorescence quenching using CNL002: 68.29%
30 uM azd0328
  YFP fluorescence quenching using AZD-0328: 70.16%
30 uM fac
  YFP fluorescence quenching using Facinicline: 65.94
500 uM tc6987
  YFP fluorescence quenching using TC-6987: −21.56
  percent quench of YFP fluorescence, 30 nM TC-6683: −29.362%
  percent quench of YFP fluorescence, 300 nM TC-6683: −28.954%
  percent quench of YFP fluorescence, 3 uM TC-6683: −23.708%
  percent quench of YFP fluorescence, 30 uM TC-6683: −23.431%
  percent quench of YFP fluorescence, 100 uM TC-6683: −18.324%
  percent quench of YFP fluorescence, 10 uM ach: −12.24%
  percent quench of YFP fluorescence, 100 uM ach: −26.23%
  percent quench of YFP fluorescence, 1 mM ach: −1.16%
  percent quench of YFP fluorescence, 3 mM ach: 2.97%

B2: CODA805: engineered chimeric LGIC receptor, Y115D, S170T in SEQ ID NO: 33 (protein)
chain: B1 chain with Y115D, T131L, S170T, D172S
modifications: synthetic sequence of chimeric LGIC
1 nM CNL001, first column
  YFP fluorescence quenching using CNL001: −10.729%
1 nM CNL001, second column
  YFP fluorescence quenching using CNL001: −15.278%
1 nM brd
  YFP fluorescence quenching using TC-5619/Bradanicline: −9.78%
3 nM brd
  YFP fluorescence quenching using TC-5619/Bradanicline: −12.06%
10 nM CNL001, first column
  YFP fluorescence quenching using CNL001: −20.403%
10 nM CNL001, second column
  YFP fluorescence quenching using CNL001: −14.905%
10 nM brd
  YFP fluorescence quenching using TC-5619/Bradanicline: −9.02%
30 nM brd
  YFP fluorescence quenching using TC-5619/Bradanicline: −16.3%
30 nM fac
  YFP fluorescence quenching using Facinicline: 38.08
50 nM CNL001, first column
  YFP fluorescence quenching using CNL001: −14.303%
50 nM CNL001, second column
  YFP fluorescence quenching using CNL001: −15.741%
50 nM abt
  YFP fluorescence quenching using ABT-126: −11.83%
100 nM CNL001, first column
  YFP fluorescence quenching using CNL001: −12.637%
100 nM CNL001, second column
  YFP fluorescence quenching using CNL001: −10.606%
100 nM CNL002
  YFP fluorescence quenching using CNL002: −18.17%
100 nM abt
  YFP fluorescence quenching using ABT-126: −11.5%
100 nM azd0328
  YFP fluorescence quenching using AZD-0328: −0.71%
100 nM brd
  YFP fluorescence quenching using TC-5619/Bradanicline: −7.44%
100 nM fac
  YFP fluorescence quenching using Facinicline: −14.37
300 nM abt
  YFP fluorescence quenching using ABT-126: −8.01%
300 nM azd0328
  YFP fluorescence quenching using AZD-0328: −1.73%
300 nM brd
  YFP fluorescence quenching using TC-5619/Bradanicline: −10.93%
300 nM fac
  YFP fluorescence quenching using Facinicline: 19.41
1 uM CNL001, first column
  YFP fluorescence quenching using CNL001: −13.535%
1 uM CNL001, second column
  YFP fluorescence quenching using CNL001: −11.335%
1 uM CNL002
  YFP fluorescence quenching using CNL002: −15.2%
1 uM abt
  YFP fluorescence quenching using ABT-126: −9.34%
1 uM brd
  YFP fluorescence quenching using TC-5619/Bradanicline: −4.55%
1 uM tc6987
  YFP fluorescence quenching using TC-6987: 31.9
10 uM fac
  YFP fluorescence quenching using Facinicline: 67.33
10 uM tc6987
  YFP fluorescence quenching using TC-6987: 25.54
30 uM CNL002
  YFP fluorescence quenching using CNL002: −14%
30 uM azd0328
  YFP fluorescence quenching using AZD-0328: 47.39%
30 uM fac
  YFP fluorescence quenching using Facinicline: 79.67
500 uM tc6987
  YFP fluorescence quenching using TC-6987: 21.13
  percent quench of YFP fluorescence, 10 uM ach: −0.46%
  percent quench of YFP fluorescence, 100 uM ach: −4.93%
  percent quench of YFP fluorescence, 1 mM ach: −11.18%
  percent quench of YFP fluorescence, 3 mM ach: −3.53%

B3: CODA807: engineered chimeric LGIC receptor, Y115D, L131E in SEQ ID NO: 33 (protein)
chain: B1 chain with Y115D, T131E, D172S
modifications: synthetic sequence of chimeric LGIC
1 nM CNL001, first column
  YFP fluorescence quenching using CNL001: 0.885%
1 nM CNL001, second column
  YFP fluorescence quenching using CNL001: −1.707%
1 nM brd
  YFP fluorescence quenching using TC-5619/Bradanicline: −1.52%
3 nM brd
  YFP fluorescence quenching using TC-5619/Bradanicline: −5.35%
10 nM CNL001, first column
  YFP fluorescence quenching using CNL001: −0.567%
10 nM CNL001, second column
  YFP fluorescence quenching using CNL001: 0.043%
10 nM brd
  YFP fluorescence quenching using TC-5619/Bradanicline: −3.49%
30 nM brd
  YFP fluorescence quenching using TC-5619/Bradanicline: −2.16%
30 nM fac
  YFP fluorescence quenching using Facinicline: 45.76
50 nM CNL001, first column
  YFP fluorescence quenching using CNL001: 5.141%
50 nM CNL001, second column
  YFP fluorescence quenching using CNL001: 9.409%
50 nM abt
  YFP fluorescence quenching using ABT-126: −1.68%
100 nM CNL001, first column
  YFP fluorescence quenching using CNL001: 9.796%
100 nM CNL001, second column
  YFP fluorescence quenching using CNL001: 11.009%
100 nM CNL002
  YFP fluorescence quenching using CNL002: −5.71%
100 nM abt
  YFP fluorescence quenching using ABT-126: −2.25%
100 nM azd0328
  YFP fluorescence quenching using AZD-0328: 24.49%
100 nM brd
  YFP fluorescence quenching using TC-5619/Bradanicline: 4.18%
100 nM fac
  YFP fluorescence quenching using Facinicline: 63.92
300 nM abt
  YFP fluorescence quenching using ABT-126: −2.37%
300 nM azd0328
  YFP fluorescence quenching using AZD-0328: 45.34%
300 nM brd
  YFP fluorescence quenching using TC-5619/Bradanicline: 70.2%
300 nM fac
  YFP fluorescence quenching using Facinicline: 79.43
1 uM CNL001, first column
  YFP fluorescence quenching using CNL001: 27.914%
1 uM CNL001, second column
  YFP fluorescence quenching using CNL001: 29.109%
1 uM CNL002
  YFP fluorescence quenching using CNL002: 13.03%
1 uM abt
  YFP fluorescence quenching using ABT-126: 3.68%
1 uM brd
  YFP fluorescence quenching using TC-5619/Bradanicline: 43.11%
1 uM tc6987
  YFP fluorescence quenching using TC-6987: 36.07
10 uM fac
  YFP fluorescence quenching using Facinicline: 80.1
10 uM tc6987
  YFP fluorescence quenching using TC-6987: 31.35
30 uM CNL002
  YFP fluorescence quenching using CNL002: 25.2%
30 uM azd0328
  YFP fluorescence quenching using AZD-0328: 71.21%
30 uM fac
  YFP fluorescence quenching using Facinicline: 84.91
500 uM tc6987
  YFP fluorescence quenching using TC-6987: 28.18
  percent quench of YFP fluorescence, 30 nM TC-6683: −26.801%
  percent quench of YFP fluorescence, 300 nM TC-6683: −25.363%
  percent quench of YFP fluorescence, 3 uM TC-6683: −23.651%
  percent quench of YFP fluorescence, 30 uM TC-6683: −26.235%
  percent quench of YFP fluorescence, 100 uM TC-6683: −24.182%
  percent quench of YFP fluorescence, 10 uM ach: 15.45%
  percent quench of YFP fluorescence, 100 uM ach: 13.77%
  percent quench of YFP fluorescence, 1 mM ach: 27.42%
  percent quench of YFP fluorescence, 3 mM ach: 53.62%
